According to the supplement of paper PMC11136658:

Test system: peptide library, one residue held at a place counted from the Y acceptor
Test: relative phosphorylation of the sub-library (ratio to the mean residue at this position); higher = residue favoured
Outline: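 Purified recombinant kinases were incubated for 90 min in 384-well plates with biotinylated Tyr-centred peptide library mixtures, each fixing one residue at one position from −5 to +5, plus 50 μM ATP with γ-32P-ATP. Peptides were captured on streptavidin membranes, rinsed and quantified by phosphorimaging and ImageQuant. Intensities were normalized per position by the sum of the 18 (or 16, Ser/Thr-free library) randomized residues and multiplied by that number. Values give phosphorylation relative to the mean randomized residue.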

FYN, construct: Full length, human, sequence (P06241 whole entry, looked up): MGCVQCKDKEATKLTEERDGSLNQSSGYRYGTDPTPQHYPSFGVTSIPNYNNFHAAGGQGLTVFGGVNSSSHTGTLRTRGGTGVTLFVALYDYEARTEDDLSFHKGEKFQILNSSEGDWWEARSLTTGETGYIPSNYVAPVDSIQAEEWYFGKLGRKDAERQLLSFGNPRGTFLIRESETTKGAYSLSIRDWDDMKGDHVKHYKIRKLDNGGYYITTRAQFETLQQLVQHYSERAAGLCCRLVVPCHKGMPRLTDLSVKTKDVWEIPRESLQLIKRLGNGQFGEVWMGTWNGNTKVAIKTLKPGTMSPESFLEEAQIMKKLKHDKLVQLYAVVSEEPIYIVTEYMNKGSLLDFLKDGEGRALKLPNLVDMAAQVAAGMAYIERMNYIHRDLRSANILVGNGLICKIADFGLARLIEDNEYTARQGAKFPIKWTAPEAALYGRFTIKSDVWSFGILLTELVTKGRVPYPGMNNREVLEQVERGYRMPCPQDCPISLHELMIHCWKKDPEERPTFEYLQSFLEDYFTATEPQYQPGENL
FRK, construct: aa208-end, human, sequence (P42685 208-505, looked up): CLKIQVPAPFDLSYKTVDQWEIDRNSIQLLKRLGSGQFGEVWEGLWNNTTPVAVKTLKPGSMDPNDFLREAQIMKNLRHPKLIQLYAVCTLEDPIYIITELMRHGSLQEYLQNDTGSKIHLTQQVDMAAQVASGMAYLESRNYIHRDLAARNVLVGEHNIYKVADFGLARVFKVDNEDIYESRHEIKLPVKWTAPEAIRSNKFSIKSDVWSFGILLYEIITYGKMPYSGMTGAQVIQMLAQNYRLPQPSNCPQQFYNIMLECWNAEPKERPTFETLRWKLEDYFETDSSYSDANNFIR

FRK, construct: aa208-end, human (from UniProt P42685)
relative phosphorylation
Details | at +1 | at +2 | at +3 | at +4 | at +5 | at -1 | at -2 | at -3 | at -4 | at -5
A fixed | 1.2 | 0.883 | 0.702 | 0.821 | 1.01 | 0.594 | 1.14 | 0.808 | 1.11 | 1.05
D fixed | 0.563 | 0.473 | 0.24 | 0.573 | 0.93 | 0.836 | 1.19 | 1.92 | 1.14 | 1.12
E fixed | 2.3 | 0.65 | 0.193 | 0.549 | 0.861 | 1.92 | 1.73 | 2.11 | 1.84 | 0.931
F fixed | 1.03 | 1.6 | 1.95 | 1.38 | 1.21 | 0.878 | 0.642 | 0.892 | 1.03 | 1.07
G fixed | 0.519 | 0.445 | 0.589 | 1.01 | 0.861 | 0.34 | 1.13 | 1.09 | 1.27 | 1.21
H fixed | 0.91 | 0.758 | 0.741 | 1.32 | 1.15 | 0.777 | 1.02 | 0.902 | 0.913 | 0.993
I fixed | 1.54 | 1.29 | 2.29 | 0.88 | 0.807 | 3.11 | 1.1 | 0.761 | 0.923 | 1.07
K fixed | 0.343 | 0.897 | 0.475 | 1.23 | 1.06 | 0.27 | 0.568 | 0.631 | 0.719 | 0.858
L fixed | 1.25 | 1.36 | 1.56 | 0.937 | 1.01 | 2.46 | 0.895 | 0.852 | 0.993 | 1.09
M fixed | 1.76 | 0.966 | 1.3 | 1.22 | 0.914 | 1.13 | 0.67 | 0.895 | 0.929 | 1.12
N fixed | 0.382 | 1.01 | 0.568 | 0.737 | 0.702 | 0.573 | 1.01 | 1.06 | 0.888 | 0.973
P fixed | 0.116 | 0.601 | 0.87 | 0.971 | 1.15 | 0.452 | 1.3 | 1.04 | 1.1 | 1.11
Q fixed | 1.23 | 0.748 | 0.469 | 0.965 | 0.974 | 0.664 | 1.01 | 0.838 | 1.06 | 0.966
R fixed | 0.492 | 1.11 | 1.52 | 1.35 | 1.2 | 0.311 | 0.656 | 0.674 | 0.769 | 0.863
S fixed | 0.919 | 1.09 | 0.642 | 0.863 | 1.01 | 0.433 | 1.03 | 0.938 | 0.792 | 0.836
T fixed | 0.825 | 1.17 | 0.767 | 0.771 | 0.853 | 0.9 | 0.9 | 0.882 | 0.634 | 0.8
V fixed | 1.18 | 1.21 | 1.71 | 0.865 | 0.934 | 1.9 | 1.3 | 0.778 | 0.793 | 0.825
W fixed | 1.44 | 1.73 | 1.43 | 1.55 | 1.36 | 0.453 | 0.716 | 0.929 | 1.09 | 1.11
pThr fixed | 1.09 | 1.58 | 0.217 | 0.462 | 0.638 | 2.06 | 1.3 | 1.28 | 0.91 | 0.853
pTyr fixed | 4.6 | 2.61 | 0.782 | 0.659 | 0.692 | 1.06 | 1.28 | 1.7 | 1.57 | 0.867

FYN, construct: Full length, human (from UniProt P06241)
relative phosphorylation
Details | at +1 | at +2 | at +3 | at +4 | at +5 | at -1 | at -2 | at -3 | at -4 | at -5
A fixed | 1.68 | 1.07 | 0.544 | 0.857 | 0.903 | 0.622 | 1.04 | 0.787 | 1.08 | 1.02
D fixed | 0.925 | 0.762 | 0.546 | 1.02 | 0.987 | 0.867 | 1.77 | 2.4 | 1.64 | 1.5
E fixed | 1.79 | 1.76 | 0.601 | 1 | 0.951 | 1.08 | 1.95 | 2.8 | 1.89 | 1.35
F fixed | 0.656 | 1.08 | 3.35 | 1.23 | 1.16 | 0.885 | 0.483 | 0.803 | 0.997 | 0.993
G fixed | 3.49 | 0.728 | 0.941 | 1.03 | 1.03 | 0.467 | 1.38 | 0.91 | 1.17 | 1.14
H fixed | 0.53 | 0.515 | 0.732 | 0.901 | 1.01 | 0.419 | 0.77 | 0.814 | 0.726 | 0.924
I fixed | 0.861 | 1.06 | 1.72 | 0.735 | 0.718 | 3.38 | 0.717 | 0.641 | 0.796 | 0.833
K fixed | 0.231 | 0.61 | 0.397 | 1.12 | 1.04 | 0.221 | 0.515 | 0.469 | 0.622 | 0.901
L fixed | 0.635 | 1.02 | 1.39 | 0.912 | 0.92 | 1.76 | 0.716 | 0.672 | 0.906 | 0.933
M fixed | 0.992 | 1.05 | 0.894 | 1.04 | 0.858 | 0.806 | 0.667 | 0.729 | 0.784 | 0.904
N fixed | 0.504 | 0.806 | 0.455 | 0.81 | 1.03 | 0.33 | 1.34 | 1.26 | 0.903 | 0.97
P fixed | 0.291 | 0.734 | 0.571 | 0.945 | 1.48 | 1.2 | 1.43 | 0.969 | 1.32 | 1.17
Q fixed | 0.906 | 0.951 | 0.539 | 1.14 | 0.81 | 0.521 | 1.2 | 0.965 | 1.08 | 0.978
R fixed | 0.311 | 0.79 | 0.728 | 1.14 | 1.22 | 0.227 | 0.612 | 0.56 | 0.744 | 0.886
S fixed | 1.01 | 1.32 | 0.628 | 0.977 | 1.03 | 0.44 | 1.23 | 0.945 | 0.813 | 0.865
T fixed | 0.895 | 1.39 | 0.92 | 0.861 | 0.996 | 1.33 | 0.774 | 0.79 | 0.733 | 0.779
V fixed | 0.935 | 1.28 | 1.4 | 0.882 | 0.722 | 2.95 | 0.793 | 0.649 | 0.821 | 0.84
W fixed | 1.36 | 1.08 | 1.64 | 1.38 | 1.14 | 0.497 | 0.606 | 0.838 | 0.973 | 1
pThr fixed | 1.64 | 2.15 | 0.627 | 0.773 | 0.686 | 4.17 | 1.92 | 1.58 | 1.42 | 1.31
pTyr fixed | 3.45 | 1.96 | 0.89 | 1.23 | 1.11 | 1.34 | 1.37 | 1.71 | 1.52 | 1.32
